B1: Decapping nuclease din1 (Schizosaccharomyces pombe (strain ATCC 38366 / 972)), O13836 (parent)
chain: MLREFSFYDVPPAHVPPVSEPLEIACYSLSRDRELLLDDSKLSYYYPPPLFSDLNTGFPNRFHPPKSDPDPISIVKDVLMTKGIQMNSSFLTWRGLITKIMCAPLDPRNHWETYLVMDPTSGIIMMEERTRSETSYANQDRMCYWGYKFEAISTLPEIWDACSRDQIEQRDNQDVVPDEQYCSIVKINIGKSKLILAGEVDCIWDKKPCSAKESDVHSDDGTIEEDASNAENPNLHYVELKTSKKYPLENYGMRKKLLKYWAQSFLLGIGRIIIGFRDDNGILIEMKELFTHQIPKMLRPYFKPNDWTPNRLLVVLEHALEWIKQTVKQHPPSTEFTLSYTGGSKLVLRQII
partner: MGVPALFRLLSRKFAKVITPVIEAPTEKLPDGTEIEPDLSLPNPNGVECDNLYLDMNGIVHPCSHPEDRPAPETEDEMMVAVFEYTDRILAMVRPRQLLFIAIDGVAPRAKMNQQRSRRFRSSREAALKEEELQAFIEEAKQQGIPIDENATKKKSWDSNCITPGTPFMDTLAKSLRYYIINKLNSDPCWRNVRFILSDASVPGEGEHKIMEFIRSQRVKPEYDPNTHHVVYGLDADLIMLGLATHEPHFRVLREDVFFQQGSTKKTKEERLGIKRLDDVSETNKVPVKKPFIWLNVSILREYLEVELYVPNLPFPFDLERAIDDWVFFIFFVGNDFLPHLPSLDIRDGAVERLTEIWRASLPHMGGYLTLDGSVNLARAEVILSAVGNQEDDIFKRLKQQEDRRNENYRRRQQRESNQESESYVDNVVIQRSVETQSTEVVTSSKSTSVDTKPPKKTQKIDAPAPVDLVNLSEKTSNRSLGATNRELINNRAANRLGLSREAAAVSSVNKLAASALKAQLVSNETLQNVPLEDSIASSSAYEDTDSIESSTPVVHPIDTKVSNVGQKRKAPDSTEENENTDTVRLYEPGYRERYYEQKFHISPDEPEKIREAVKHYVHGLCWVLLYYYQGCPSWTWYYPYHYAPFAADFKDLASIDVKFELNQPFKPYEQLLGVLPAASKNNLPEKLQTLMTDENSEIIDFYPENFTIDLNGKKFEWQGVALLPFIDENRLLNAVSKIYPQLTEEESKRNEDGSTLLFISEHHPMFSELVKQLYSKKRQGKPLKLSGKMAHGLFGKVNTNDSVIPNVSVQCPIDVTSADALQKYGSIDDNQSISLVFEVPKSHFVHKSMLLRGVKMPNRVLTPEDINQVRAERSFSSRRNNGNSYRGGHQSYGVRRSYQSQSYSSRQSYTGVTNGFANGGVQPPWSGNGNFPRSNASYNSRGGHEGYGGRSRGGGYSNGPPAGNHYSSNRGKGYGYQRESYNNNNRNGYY

Variants of: B1
Conditions: with xrn2_schpo dhp1, P40848

effect of a mutation on the interaction | Variant
decreasing interaction | R164A
decreasing interaction | W204A
decreasing interaction | W159A
